Results published in patent US12099068B2, “Biomarkers for graft-versus-host disease” (Incyte Corporation, priority 2018, dated 2024).

test system: plasma proteins; assay: Plasma proteins modulated between baseline and day 28 in responders (CR, VGPR, PR; n = 19), Example 6 (Table 13); assay type: in vivo, human; conditions: plasma protein (OLINK NPX); responders (CR, VGPR, PR; n = 19); itacitinib 200 mg or 300 mg QD with corticosteroids; day 28 vs baseline
Summary of the method: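 Plasma at baseline/screening and day 28 profiled for >1000 proteins by OLINK proximity extension assay, reported as NPX (log2). Steroid-naive and steroid-refractory patients pooled. Paired and unpaired t tests, ANOVA and Pearson correlation applied; significance at P<0.05.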

Row | Molecule | Fold Change, Decreased Expression from Baseline to Day 28 | Fold Change, Increased Expression from Baseline to Day 28
1 | PRDX3 (protein, UniProt P30048 62-256, looked up) Thioredoxin-dependent …: APAVTQHAPYFKGTAVVNGEFKDLSLDDFKGKYLVLFFYPLDFTFVCPTEIVAFSDKANEFHDVNCEVVAVSVDSHFSHLAWINTPRKNGGLGHMNIALLSDLTKQISRDYGVLLEGSGLALRGLFIIDPNGVIKHLSVNDLPVGRSVEETLRLVKAFQYVETHGEVCPANWTPDSPTIKPSPAASKEYFQKVNQ | −1.199 | 
2 | DNER (protein, UniProt Q8NFT8 35-737, looked up) Delta and Notch-like …: NPVPAAPLSAPGPCAAQPCRNGGVCTSRPEPDPQHPAPAGEPGYSCTCPAGISGANCQLVADPCASNPCHHGNCSSSSSSSSDGYLCICNEGYEGPNCEQALPSLPATGWTESMAPRQLQPVPATQEPDKILPRSQATVTLPTWQPKTGQKVVEMKWDQVEVIPDIACGNASSNSSAGGRLVSFEVPQNTSVKIRQDATASLILLWKVTATGFQQCSLIDGRSVTPLQASGGLVLLEEMLALGNNHFIGFVNDSVTKSIVALRLTLVVKVSTCVPGESHANDLECSGKGKCTTKPSEATFSCTCEEQYVGTFCEEYDACQRKPCQNNASCIDANEKQDGSNFTCVCLPGYTGELCQSKIDYCILDPCRNGATCISSLSGFTCQCPEGYFGSACEEKVDPCASSPCQNNGTCYVDGVHFTCNCSPGFTGPTCAQLIDFCALSPCAHGTCRSVGTSYKCLCDPGYHGLYCEEEYNECLSAPCLNAATCRDLVNGYECVCLAEYKGTHCELYKDPCANVSCLNGATCDSDGLNGTCICAPGFTGEECDIDINECDSNPCHHGGSCLDQPNGYNCHCPHGWVGANCEIHLQWKSGHMAESLTNMPRHSLYIIIGALCVAFILMLIILIVGICRISRIEYQGSSRPAYEEFYNCRSIDSEFSNAIASIRHARFGKKSRPAMYDVSPIAYEDYSPDDKPLVTLIKTKDL |  | 1.2957
3 | CLEC4G (protein, UniProt Q6UXB4 1-293, looked up) C-type lectin domain family 4 …: MDTTRYSKWGGSSEEVPGGPWGRWVHWSRRPLFLALAVLVTTVLWAVILSILLSKASTERAALLDGHDLLRTNASKQTAALGALKEEVGDCHSCCSGTQAQLQTTRAELGEAQAKLMEQESALRELRERVTQGLAEAGRGREDVRTELFRALEAVRLQNNSCEPCPTSWLSFEGSCYFFSVPKTTWAAAQDHCADASAHLVIVGGLDEQGFLTRNTRGRGYWLGLRAVRHLGKVQGYQWVDGVSLSFSHWNQGEPNDAWGRENCVMMLHTGLWNDAPCDSEKDGWICEKRHNC | −1.1865 | 
4 | VEGFC (protein, UniProt P49767 112-227, looked up) Vascular endothelial growth …: AHYNTEILKSIDNEWRKTQCMPREVCIDVGKEFGVATNTFFKPPCVSVYRCGGCCNSEGLQCMNTSTSYLSKTLFEITVPLSQGPKPVTISFANHTSCRCMSKLDVYRQVHSIIRR | −1.1727 | 
5 | GZMH (protein, UniProt P20718 21-246, looked up) Granzyme H: IIGGHEAKPHSRPYMAFVQFLQEKSRKRCGGILVRKDFVLTAAHCQGSSINVTLGAHNIKEQERTQQFIPVKRPIPHPAYNPKNFSNDIMLLQLERKAKWTTAVRPLRLPSSKAQVKPGQLCSVAGWGYVSMSTLATTLQEVLLTVQKDCQCERLFHGNYSRATEICVGDPKKTQTGFKGDSGGPLVCKDVAQGILSYGNKKGTPPGVYIKVSHFLPWIKRTMKRL | −1.494 | 
6 | FADD (protein, UniProt Q13158 1-208, looked up) FAS-associated death domain …: MDPFLVLLHSVSSSLSSSELTELKFLCLGRVGKRKLERVQSGLDLFSMLLEQNDLEPGHTELLRELLASLRRHDLLRRVDDFEAGAAAGAAPGEEDLCAAFNVICDNVGKDWRRLARQLKVSDTKIDSIEDRYPRNLTERVRESLRIWKNTEKENATVAHLVGALRSCQMNLVADLVQEVQQARDLQNRSGAMSPMSWNSDASTSEAS | −1.546 | 
7 | FASLG (protein, UniProt P48023 130-281, looked up) Tumor necrosis factor ligand …: QIGHPSPPPEKKELRKVAHLTGKSNSRSMPLEWEDTYGIVLLSGVKYKKGGLVINETGLYFVYSKVYFRGQSCNNLPLSHKVYMRNSKYPQDLVMMEGKMMSYCTTGQMWARSSYLGAVFNLTSADHLYVNVSELSLVNFEESQTFFGLYKL | −1.3614 | 
8 | FCRL6 (protein, UniProt Q6DN72 20-434, looked up) Fc receptor-like protein 6: LYLQAWPNPVFEGDALTLRCQGWKNTPLSQVKFYRDGKFLHFSKENQTLSMGAATVQSRGQYSCSGQVMYIPQTFTQTSETAMVQVQELFPPPVLSAIPSPEPREGSLVTLRCQTKLHPLRSALRLLFSFHKDGHTLQDRGPHPELCIPGAKEGDSGLYWCEVAPEGGQVQKQSPQLEVRVQAPVSRPVLTLHHGPADPAVGDMVQLLCEAQRGSPPILYSFYLDEKIVGNHSAPCGGTTSLLFPVKSEQDAGNYSCEAENSVSRERSEPKKLSLKGSQVLFTPASNWLVPWLPASLLGLMVIAAALLVYVRSWRKAGPLPSQIPPTAPGGEQCPLYANVHHQKGKDEGVVYSVVHRTSKRSEARSAEFTVGRKDSSIICAEVRCLQPSEVSSTEVNMRSRTLQEPLSDCEEVLC | −1.3556 | 
9 | FCRL1 (protein, UniProt Q96LA6 17-429, looked up) Fc receptor-like protein 1: AELFLIASPSHPTEGSPVTLTCKMPFLQSSDAQFQFCFFRDTRALGPGWSSSPKLQIAAMWKEDTGSYWCEAQTMASKVLRSRRSQINVHRVPVADVSLETQPPGGQVMEGDRLVLICSVAMGTGDITFLWYKGAVGLNLQSKTQRSLTAEYEIPSVRESDAEQYYCVAENGYGPSPSGLVSITVRIPVSRPILMLRAPRAQAAVEDVLELHCEALRGSPPILYWFYHEDITLGSRSAPSGGGASFNLSLTEEHSGNYSCEANNGLGAQRSEAVTLNFTVPTGARSNHLTSGVIEGLLSTLGPATVALLFCYGLKRKIGRRSARDPLRSLPSPLPQEFTYLNSPTPGQLQPIYENVNVVSGDEVYSLAYYNQPEQESVAAETLGTHMEDKVSLDIYSRLRKANITDVDYEDAM | −1.3733 | 
10 | EGF (protein, UniProt P01133 23-1207, looked up, Pro-epidermal growth factor) Pro-epidermal growth factor: PQHWSCPEGTLAGNGNSTCVGPAPFLIFSHGNSIFRIDTEGTNYEQLVVDAGVSVIMDFHYNEKRIYWVDLERQLLQRVFLNGSRQERVCNIEKNVSGMAINWINEEVIWSNQQEGIITVTDMKGNNSHILLSALKYPANVAVDPVERFIFWSSEVAGSLYRADLDGVGVKALLETSEKITAVSLDVLDKRLFWIQYNREGSNSLICSCDYDGGSVHISKHPTQHNLFAMSLFGDRIFYSTWKMKTIWIANKHTGKDMVRINLHSSFVPLGELKVVHPLAQPKAEDDTWEPEQKLCKLRKGNCSSTVCGQDLQSHLCMCAEGYALSRDRKYCEDVNECAFWNHGCTLGCKNTPGSYYCTCPVGFVLLPDGKRCHQLVSCPRNVSECSHDCVLTSEGPLCFCPEGSVLERDGKTCSGCSSPDNGGCSQLCVPLSPVSWECDCFPGYDLQLDEKSCAASGPQPFLLFANSQDIRHMHFDGTDYGTLLSQQMGMVYALDHDPVENKIYFAHTALKWIERANMDGSQRERLIEEGVDVPEGLAVDWIGRRFYWTDRGKSLIGRSDLNGKRSKIITKENISQPRGIAVHPMAKRLFWTDTGINPRIESSSLQGLGRLVIASSDLIWPSGITIDFLTDKLYWCDAKQSVIEMANLDGSKRRRLTQNDVGHPFAVAVFEDYVWFSDWAMPSVMRVNKRTGKDRVRLQGSMLKPSSLVVVHPLAKPGADPCLYQNGGCEHICKKRLGTAWCSCREGFMKASDGKTCLALDGHQLLAGGEVDLKNQVTPLDILSKTRVSEDNITESQHMLVAEIMVSDQDDCAPVGCSMYARCISEGEDATCQCLKGFAGDGKLCSDIDECEMGVPVCPPASSKCINTEGGYVCRCSEGYQGDGIHCLDIDECQLGEHSCGENASCTNTEGGYTCMCAGRLSEPGLICPDSTPPPHLREDDHHYSVRNSDSECPLSHDGYCLHDGVCMYIEALDKYACNCVVGYIGERCQYRDLKWWELRHAGHGQQQKVIVVAVCVVVLVMLLLLSLWGAHYYRTQKLLSKNPKNPYEESSRDVRSRRPADTEDGMSSCPQPWFVVIKEHQDLKNGGQPVAGEDGQAADGSMQPTSWRQEPQLCGMGTEQGCWIPVSSDKGSCPQVMERSFHMPSYGTQTLEGGVEKPHSLLSANPLWQQRALDPPHQMELTQ | −1.7729 | 
11 | SEMA7A (protein, UniProt O75326 45-648, looked up) Semaphorin-7A: QGHLRSGPRIFAVWKGHVGQDRVDFGQTEPHTVLFHEPGSSSVWVGGRGKVYLFDFPEGKNASVRTVNIGSTKGSCLDKRDCENYITLLERRSEGLLACGTNARHPSCWNLVNGTVVPLGEMRGYAPFSPDENSLVLFEGDEVYSTIRKQEYNGKIPRFRRIRGESELYTSDTVMQNPQFIKATIVHQDQAYDDKIYYFFREDNPDKNPEAPLNVSRVAQLCRGDQGGESSLSVSKWNTFLKAMLVCSDAATNKNFNRLQDVFLLPDPSGQWRDTRVYGVFSNPWNYSAVCVYSLGDIDKVFRTSSLKGYHSSLPNPRPGKCLPDQQPIPTETFQVADRHPEVAQRVEPMGPLKTPLFHSKYHYQKVAVHRMQASHGETFHVLYLTTDRGTIHKVVEPGEQEHSFAFNIMEIQPFRRAAAIQTMSLDAERRKLYVSSQWEVSQVPLDLCEVYGGGCHGCLMSRDPYCGWDQGRCISIYSSERSVLQSINPAEPHKECPNPKPDKAPLQKVSLAPNSRYYLSCPMESRHATYSWRHKENVEQSCEPGHQSPNCILFIENLTAQQYGHYFCEAQEGSYFREAQHWQLLPEDGIMAEHLLGHACALA | −1.1335 | 
12 | LYVE1 (protein, UniProt Q9Y5Y7 20-322, looked up) Lymphatic vessel endothelial …: LVQGSLRAEELSIQVSCRIMGITLVSKKANQQLNFTEAKEACRLLGLSLAGKDQVETALKASFETCSYGWVGDGFVVISRISPNPKCGKNGVGVLIWKVPVSRQFAAYCYNSSDTWTNSCIPEIITTKDPIFNTQTATQTTEFIVSDSTYSVASPYSTIPAPTTTPPAPASTSIPRRKKLICVTEVFMETSTMSTETEPFVENKAAFKNEAAGFGGVPTALLVLALLFFGAAAGLGFCYVKRYVKAFPFTNKNQQKEMIETKVVKEEKANDSNPNEESKKTDKNPEESKSPSKTTVRCLEAEV | −1.227 | 
13 | CEACAM8 (protein, UniProt P31997 35-320, looked up) Cell adhesion molecule CEACAM8: QLTIEAVPSNAAEGKEVLLLVHNLPQDPRGYNWYKGETVDANRRIIGYVISNQQITPGPAYSNRETIYPNASLLMRNVTRNDTGSYTLQVIKLNLMSEEVTGQFSVHPETPKPSISSNNSNPVEDKDAVAFTCEPETQNTTYLWWVNGQSLPVSPRLQLSNGNRTLTLLSVTRNDVGPYECEIQNPASANFSDPVTLNVLYGPDAPTISPSDTYYHAGVNLNLSCHAASNPPSQYSWSVNGTFQQYTQKLFIPNITTKNSGSYACHTTNSATGRNRTTVRMITVSD | −1.6177 | 
